The text below walks through data of patent US20210277126A1 (LEGEND BIOTECH IRELAND, published 2021).

Changes are numbered by the printed parent chain.

First the molecules themselves.
T1: cynomolgus monkey CLL1 ECD (65-265) (cynomolgus monkey)
T1 construct: Expressed in 293-F cells and purified by IMAC; also called cynoCLL1; recombinant cynomolgus monkey CLL1 protein
T1 chain: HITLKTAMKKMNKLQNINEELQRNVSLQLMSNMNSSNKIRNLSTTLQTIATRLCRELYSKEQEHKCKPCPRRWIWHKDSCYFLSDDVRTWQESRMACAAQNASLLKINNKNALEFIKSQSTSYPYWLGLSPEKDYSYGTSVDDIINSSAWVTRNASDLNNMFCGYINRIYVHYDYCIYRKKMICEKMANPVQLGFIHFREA

T2: human CLL1 ECD (65-265) (human, UniProt Q5QGZ9 65-265)
T2 construct: Expressed in 293-F cells and purified by IMAC; also called huCLL1; recombinant human CLL1 protein
T2 sequence: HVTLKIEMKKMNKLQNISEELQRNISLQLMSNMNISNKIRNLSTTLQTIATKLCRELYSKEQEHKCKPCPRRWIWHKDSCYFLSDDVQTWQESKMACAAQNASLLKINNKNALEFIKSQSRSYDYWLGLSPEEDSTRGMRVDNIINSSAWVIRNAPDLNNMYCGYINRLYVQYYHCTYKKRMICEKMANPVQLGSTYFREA

B1: AS82505 sdAb (VHH)
VHH: QVQLAESGGGLVQPGGSLRLSCVASGFTFSSYDMSWVRQAPGKGVEWVSTINSGGGSTYYAESAKGRFTISRDNAKNTLYLQLNSLKTEDTAMYYCVKGFPDDDGPGELSREYNYWGQGTQVTVSS
notes: Camel sdAb tested as E. coli culture supernatant; not shown: C-terminal His-tag encoded by the soluble expression vector
B2: AS83791 sdAb (VHH)
VHH: QVKLVESGGGLVQPGGSLRLSCVASGFAFSSADMSWVRQAPGKGVEAVSVINRDGASTYYADSVKGRFTISRDNAKSTLYLQMNSLKPEDTAMYHCAVVPENEYESGSYNYWGQGTQVTVSS
notes: Tested as E. coli culture supernatant; not shown: C-terminal His-tag encoded by the soluble expression vector
B3: AS83180 sdAb (VHH)
VHH: QVQLVESGGGSVQAGGSLRLSCVVSAATNCRYIAWYRQAPGKAREFVSTLGSDGNTNYADSVKGRFTISQGNIKNMAYLEMNSLKPEDTGMYYCGTRCQIGDDWRSSDWAQGTQVTVSS
notes: as for B1
B4: AS83309 sdAb (VHH)
VHH: EVQLVESGGDLVRPGGSLRLSCAASGFTFSIYDMNWVRQAPGKGLEWVAGISGNGYSTSYAESVKGRFTISKDNAKNTVYLQLSSLKFEDTAMYYCVRGGEKWDENDLRRKGQGTQVTVSS
notes: as for B1
B5: AS83183 sdAb (VHH)
VHH: QVHLVESGGGSVQSGGSLRLSCAASGYAYRSYCMGWFRQAPGKVLEGVAAIESDGTTTYADSVMGRFTISQDNAKNALYLQMNSLKPEDTAMYHCAAVKGSCDSASSDTPSYWGQGTQVTVSS
notes: as for B1
B6: AS83457 sdAb (VHH)
VHH: QVQLVESGGGLVQPGGSLRLSCAASGFFFSIYDMNWFRQAPGKGLEWVSGITGNGYTTAYADSVKGRFTISRDNAKNTLYLQLNSLKSEDTAMYYCAQGSNRGRGTQVTVSS
notes: as for B1
B7: AS82494 sdAb (VHH)
VHH: B6 VHH with F28T, I31V, A59S, Q98K, G99E, S100T, R104Q
notes: as for B1
B8: AS83010 sdAb (VHH)
VHH: B6 VHH with A23V, I31A, A97T, Q98E, S100D, R104Q
notes: as for B1
B9: AS82544 sdAb (VHH)
VHH: EVQLVESGGALVQPGGSLRLSCTASGFLFRVYDMNWVRQAPGKGVEWIVGITNNGYTTAYADSVKGRFTISRDNTENTLFLQMNSLKPEDTAMYYCQTDNGRVRGQGTQVTVSS
notes: as for B1
B10: AS83591 sdAb (VHH)
VHH: QVQLVESGGGLVQPGGSLRLSCAASGFLFSIYDMNWVRQAPGKGVEWIAGITNNEHTTAYADSVKGRFTISRDNTKNTLFLQMNSLKPEDTAMYYCQRDDGQVRGQGTQVTVSS
notes: as for B1
B11: AS82658 sdAb (VHH)
VHH: QVQLVESGGGSVQAGGALSLSCAASGYTVRIDYMGWYRQTPGKGREPVATIASNGGTAYADSVEGRFTISQDNAKNSVYLQMNTLKPGDTAMYYCAAGTWPTLTYFGQGTQVTVSS
notes: as for B1
B12: AS83478 sdAb (VHH)
VHH: QVHLMESGGGLVQPGESLRLSCAASGFIFANYEMSWVRQAPGKVLEWVSGINSRGNATYYADSVKGRFTISRDNAEHTLYLQMNSLKPEDTAMYHCVVGGMTTDQGSPDFYWGQGTQVTVSS
notes: as for B1
B13: AS83431 sdAb (VHH)
VHH: QVRLVESGGGSVQSGGSLRLSCAASGYARSSTCLGWFRQAPGKEVEGVAIIGRDGSTGYADSVKGRFTISQDNAKNTLYLHMDSLKPEDTAMYYCAAVEGGCEVSEGTGEQQLAYWGQGTQVTVSS
notes: as for B1
B14: AS82480 sdAb (VHH)
VHH: EVQLVESGGGSVQAGGSLRLSCAASGVTYSSACMGWFRQAPGKGREVVAVLYAGGSTTHYASSVKERFTISQDNAKNTVYLQMNSLKPEDTAVYYCAAALGDRSSCEWRYWGQGTQVTVSS
notes: as for B1
B15: AS82718 sdAb (VHH)
VHH: QVQLAESGGGLVQTGGSLRLSCTASGLNFGLYAMGWFRQAPGKEREGVSCINGGGGITVYSDFVKSRFTISRDNAKNTLYLQMNSLKPDDTATYYCAADRSPFGSCSSDWSRSSDWSRMAEKFGYWGQGTQVTVSS
notes: as for B1

The target of the first test is T1, cynomolgus monkey CLL1 ECD (65-265). Description: SPR (Biacore T200), sdAb supernatant, recombinant cynomolgus CLL1. How it is done:
(§1) The unique clones were grown in 2YT medium and induced by IPTG for sdAb expression in the supernatant. The supernatants of unique binders were analyzed for their ability to bind to a CLL1-expressing HKE293/huCLL-1 cell line and cancer cell line AML193 using a FACS assay. Affinities of selected binders in supernatants to recombinant human and cynomolgus monkey CLL1 proteins were determined by surface plasmon resonance (SPR) on a BIACORE® T200 instrument. The dissociation phase was used to calculate the kd values for each sdAb.
On the technique in general: Surface plasmon resonance follows binding to a sensor surface in real time, without labels.
As to B1, the Kd (commonly the constant that tells how readily two partners part at equilibrium) came out at 0.59 nM.

Turning to B2, the dissociation constant (Kd) came out at 0.22 nM.

For the molecule B3, the equilibrium dissociation constant (Kd) came out at 2.4 nM.

B4: the dissociation constant (Kd) was 0.63 nM.

As for B5, the dissociation constant Kd came to 0.26 nM.

Regarding B6, the Kd was determined as 19 nM.

Consider B7, for which the Kd stood at 98 nM.

B8: the Kd was determined as 3.2 nM.

Consider B9, for which the dissociation constant (Kd) was 39 nM.

Consider B10, for which the Kd came out at 19 nM.

Regarding B11, the dissociation constant Kd was found to be 1.9 nM.

On to B12, for which the Kd was found to be 1.4 nM.

As to B13, the equilibrium dissociation constant (Kd) was determined as 0.24 nM.

With B14, the Kd is 47 nM.

B15: the dissociation constant (Kd) was determined as 2.6 nM.

For another test, the target named is T2, human CLL1 ECD (65-265). In words: SPR (Biacore T200), sdAb supernatant, recombinant human CLL1. How it is done: as §1
Turning to B1, the dissociation constant (Kd) was found to be 0.83 nM.

B2: the equilibrium dissociation constant (Kd) was found to be 0.44 nM.

In the case of B3, the Kd was found to be 3 nM.

With B4, the equilibrium dissociation constant (Kd) amounted to 7.3 nM.

As for B5, the Kd was found to be 1 nM.

In the case of B6, the Kd came out at 31 nM.

As for B7, the dissociation constant (Kd) turned out to be 21 nM.

For B8, the dissociation constant (Kd) is 8.4 nM.

Take B9: the dissociation constant Kd amounted to 8.6 nM.

Take B10: the equilibrium dissociation constant (Kd) amounted to 31 nM.

For the molecule B11, the Kd was found to be 1.6 nM.

As to B12, the Kd worked out at 2 nM.

Regarding B13, the equilibrium dissociation constant (Kd) came to 0.37 nM.

Turning to B14, the Kd came out at 1.5 nM.

On to B15, for which the Kd came to 24 nM.
